Laboratory results published in article PMC314469, “Protein Interaction Networks by Proteome Peptide Scanning” (PLoS Biology, 2004).

T1: amphyphisin SH3 (AMPH_HUMAN), P49418
T1 chain: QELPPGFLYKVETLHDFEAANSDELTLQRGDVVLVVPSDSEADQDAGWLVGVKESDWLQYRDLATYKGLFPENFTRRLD


Assays:
[1] = target: T1, amphyphisin SH3 (AMPH_HUMAN), P49418; experiment: SPOT array
[2] = target: endophilin SH3 (SH3G2_HUMAN), Q99962; experiment: SPOT array

Row | normalised SPOT signal, Boehringer light units (BLU); mean over the file's lines of this peptide [1] | normalised SPOT signal, Boehringer light units (BLU); mean over the file's lines of this peptide [2] | Binder
1 | 6180 | 6430 | QAAFPRRPPPRGTR [Q9Y5N2 203-217]
2 | 1060 | 226 | QALYFSRPFREKVL [O75317 40-53]
3 | 2910 | 70.9 | QEALPMRPAREGEL [Q9Y6J9 86-99]
4 | 266 | 154 | QDLRPLRPPAQTPQ [O00456 524-538]
5 | 66 | 254 | PTGQPRRPRNLAAA [Q00325 36-49]
6 | 178 | 1370 | QAATPRRPAAISRP [Q96E55 116-129]
7 | 6450 | 7340 | QAGFPRRPPPRGTR [Q9UER3 87-101]
8 | 32.6 | 870 | PTSVPRRPGQRRPP [P48023 33-46]
9 | 46.3 | 72.6 | PVAVLKRPSQLSRK [Q9BQI8 153-166]
10 | 80.1 | 62.6 | QAVFPFKPPQRIEA [Q9Y6X3 59-73]
11 | 351 | 282 | PYPLILRPQRGVDL [P47712 557-570]
12 | 23500 | 19900 | PTRPPSRPPSRPSR [Q99700 579-593]
13 | 1510 | 4420 | PTTRPTRPPPPLIP [O75376 1024-1038]
14 | 17500 | 9690 | PTILPSRPQRSASH [Q16671 539-552]
15 | 1920 | 178 | QAVHLPRPPRVLGL [Q9H960 30-43]
16 | 101 | 109 | PVLSPRRPWPSLSW [Q9NUD3 48-61]
17 | 38.5 | 119 | QAQLPPKPPAWAWA [P54098 158-172]
18 | 20600 | 2900 | QDSPPPKPPRTRSS [Q05209 329-343]
19 | 35.4 | 63.7 | PVLDLRRPPSDLYL [Q9Y618 2172-2185]
20 | 48.8 | 116 | AASGIKRPMASEVL [Q99755 29-42]
21 | 4120 | 445 | QASRFQRPGRRMSE [Q9BZ71 507-520]

Row | normalised SPOT signal, Boehringer light units (BLU); mean over the file's lines of this peptide [1] | normalised SPOT signal, Boehringer light units (BLU); mean over the file's lines of this peptide [2] | Binder
22 | 48.6 | 35 | PTQELRRPSKSMDK [Q9C098 170-183]
23 | 7120 | 5850 | PTRPPSRPPSRPQS [Q9NZM4 744-758]
24 | 7.4 | 75.3 | PTKSIKRPSPAEKS [Q9HC35 168-181]
25 | 346 | 1570 | QAVLPPRPPKVLEF [Q9NWT4 356-370]
26 | 844 | 378 | QSDSIRRPLRPGQY [O75878 30-43]
27 | 7830 | 16000 | PVVPPRRPPPPKKT [Q9P2Q1 393-407]
28 | 97.6 | 142 | QEDSPRKPPNFPVP [Q8TEE1 827-841]
29 | 57.5 | 106 | ASSGLRRPEKPPYS [Q12947 91-104]
30 | 15.7 | 35 | PTGSLRRPLGPHAP [Q9H3T3 825-838]
31 | 2250 | 224 | QALYFSRPFRENVL [Q9H9T8 51-64]
32 | 43 | 204 | PWQRPKRPGHGHGW [Q03252 424-437]
33 | 3040 | 218 | PWRGFSRPSRFFSS [Q14968 167-180]
34 | 13600 | 7540 | QAGPPSRPPRYSSS [AAH32298 59-73]
35 | 42.3 | 101 | PVEAIKRPSPDEPM [Q9H3D6 83-96]
36 | 4280 | 556 | QAGGPQRPGRVVSL [Q13671 45-58]
37 | 47 | 50.1 | PVLDLKRPFLSRES [P47985 41-54]
38 | 950 | 5690 | ASSRPGRPPKRTQS [Q9UI36 281-295]
39 | 5240 | 420 | PTVTPRRPGRPDHR [P51511 317-330]
40 | 6850 | 20200 | ASSRPGRPPKRSLG [BAC03761 161-175]
41 | 165 | 219 | QDAYLSRPGRALAH [Q9UIW2 291-304]
42 | 8510 | 2120 | PVVLPWRPARAHSS [Q9Y2H3 1375-1388]
